Where two headings read alike, the source gives them in different places.
Tests used:
hUNG2 full-length [1] = target: T1, hUNG2 full-length (human, UniProt P13051 1-313); assay: fluorescence anisotropy
RPA heterotrimer [2] = target: T2, RPA heterotrimer (UniProt P27694;P15927;P35244 1-616;1-270;1-121); assay: EMSA
hUNG2 full-length [3] = target: T1, hUNG2 full-length; assay: fluorescence anisotropy; remark: listed apart in the source
RPA heterotrimer [4] = target: T2, RPA heterotrimer; assay: EMSA; remark: listed apart in the source
hUNG2 catalytic domain = hUNG2 catalytic domain (human, UniProt P13051 92-313); assay: fluorescence anisotropy
hUNG2 catalytic domain, sequence (P13051 92-313): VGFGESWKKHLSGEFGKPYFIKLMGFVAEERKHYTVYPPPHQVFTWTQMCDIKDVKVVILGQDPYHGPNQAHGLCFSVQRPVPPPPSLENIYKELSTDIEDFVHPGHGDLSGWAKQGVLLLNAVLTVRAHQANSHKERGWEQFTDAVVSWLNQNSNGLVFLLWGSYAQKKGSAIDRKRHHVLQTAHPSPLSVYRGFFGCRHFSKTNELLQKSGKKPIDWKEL

T2 sequence (P27694 whole entry, chain 1 of 3): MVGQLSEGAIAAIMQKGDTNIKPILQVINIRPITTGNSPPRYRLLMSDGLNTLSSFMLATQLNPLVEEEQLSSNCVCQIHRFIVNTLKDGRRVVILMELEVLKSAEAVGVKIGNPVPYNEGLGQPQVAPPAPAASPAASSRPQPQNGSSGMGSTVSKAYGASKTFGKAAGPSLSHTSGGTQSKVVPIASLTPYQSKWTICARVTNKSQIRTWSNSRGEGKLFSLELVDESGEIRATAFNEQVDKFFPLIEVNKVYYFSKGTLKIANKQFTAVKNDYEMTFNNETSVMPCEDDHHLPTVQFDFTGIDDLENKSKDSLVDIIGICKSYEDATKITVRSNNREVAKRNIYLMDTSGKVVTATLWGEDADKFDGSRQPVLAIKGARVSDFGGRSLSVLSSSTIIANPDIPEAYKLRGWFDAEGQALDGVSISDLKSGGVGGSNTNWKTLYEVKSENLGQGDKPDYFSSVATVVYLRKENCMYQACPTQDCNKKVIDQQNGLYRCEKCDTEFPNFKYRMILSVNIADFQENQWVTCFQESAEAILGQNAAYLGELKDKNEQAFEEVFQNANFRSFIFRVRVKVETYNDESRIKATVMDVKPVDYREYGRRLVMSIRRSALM
T2 sequence (P15927 whole entry, chain 2 of 3): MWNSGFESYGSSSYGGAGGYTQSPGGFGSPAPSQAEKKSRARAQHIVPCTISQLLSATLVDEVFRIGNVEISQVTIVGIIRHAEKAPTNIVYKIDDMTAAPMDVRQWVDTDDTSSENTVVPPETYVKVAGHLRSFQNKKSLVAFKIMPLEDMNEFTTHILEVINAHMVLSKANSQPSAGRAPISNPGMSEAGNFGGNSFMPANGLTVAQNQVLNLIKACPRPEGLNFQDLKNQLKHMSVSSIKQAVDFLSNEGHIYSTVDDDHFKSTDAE
T2 sequence (P35244 whole entry, chain 3 of 3): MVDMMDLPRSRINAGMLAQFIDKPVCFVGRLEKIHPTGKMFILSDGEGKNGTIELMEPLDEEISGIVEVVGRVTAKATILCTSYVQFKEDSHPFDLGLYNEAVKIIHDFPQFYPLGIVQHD
T1 sequence (P13051 whole entry): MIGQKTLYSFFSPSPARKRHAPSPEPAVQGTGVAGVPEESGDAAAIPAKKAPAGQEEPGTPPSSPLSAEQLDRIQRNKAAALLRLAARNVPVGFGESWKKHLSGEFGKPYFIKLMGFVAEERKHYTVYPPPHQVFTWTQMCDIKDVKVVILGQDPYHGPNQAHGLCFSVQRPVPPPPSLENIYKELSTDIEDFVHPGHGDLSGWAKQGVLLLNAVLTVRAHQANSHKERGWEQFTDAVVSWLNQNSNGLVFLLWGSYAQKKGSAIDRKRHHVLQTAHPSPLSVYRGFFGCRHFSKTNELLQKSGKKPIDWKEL

B1: 29 bp duplex with 29 nt 5' ssDNA overhang (oligos 15/16) (mixed)
DNA 1: CACGCGTGGCCCGGCAGTTATCCAGCACCACTTAGCTATCGATTCCCGCATGCTCTGA
DNA 2: TCAGAGCATGCGGGAATCGATAGCTAAGT
binding result (hUNG2 full-length [1]): binds

B2: 55 bp duplex U9/U33 with 32 nt 5' overhang (oligos 9/10) (mixed)
DNA 1: ATCGAGCTGGACACCATCACTCCATATTGGTCACTTAGCTATCGATTCCCGCATGCTCTTAGCTATCGATTCACCTGAGACTAGTCA
DNA 2: TGACTAGTCTCAGGTGAATCGAUAGCTAAGAGCATGCGGGAATCGAUAGCTAAGT
modifications: two deoxyuridines in strand 2
binding result (RPA heterotrimer [2]): binds

CACGCGTGGCCCGGCAGTTATCCAGCACC (ssDNA) [29 nt ssDNA (oligo 14)]
binding signal (hUNG2 full-length [3]): 3 fold higher affinity than N1 (29 bp dsDNA)

B3: 55 bp duplex U9/U33 with 32 nt 3' overhang (oligos 18/19) (mixed)
DNA 1: ACTGATCAGAGTCCACTTAGCTATCGATTCTCGTACGCCCTTAGCTATCGATTCACTGGTTATACCTCACTACCACAGGTCGAGCTA
DNA 2: TGAATCGAUAGCTAAGGGCGTACGAGAATCGAUAGCTAAGTGGACTCTGATCAGT
modifications: two deoxyuridines in strand 2
binding result (RPA heterotrimer [4]): binds

B4: 55 bp duplex U21/U45 with 32 nt 5' overhang (oligos 4/5) (mixed)
DNA 1: ATCGAGCTGGACACCATCACTCCATATTGGTCACTGCATGCTCTTCTTAGCTATCGATTCACCTGAGACCTTAGCTATCGATTCTCA
DNA 2: TGAGAATCGAUAGCTAAGGTCTCAGGTGAATCGAUAGCTAAGAAGAGCATGCAGT
modifications: two deoxyuridines in strand 2
binding result (RPA heterotrimer [2]): binds

B5: 29 bp duplex (oligos 13/14) (dsDNA)
DNA 1: GGTGCTGGATAACTGCCGGGCCACGCGTG
DNA 2: CACGCGTGGCCCGGCAGTTATCCAGCACC
binding signal (hUNG2 catalytic domain): 3 fold lower affinity than full-length hUNG2
